Ends that are not written are not given here.
Target: T1, beta-catenin (Homo sapiens, UniProt P35222)
T1 construct: made in house; host or cells: E. coli BL21 (DE3) pLysS
T1 sequence (P35222 134-665): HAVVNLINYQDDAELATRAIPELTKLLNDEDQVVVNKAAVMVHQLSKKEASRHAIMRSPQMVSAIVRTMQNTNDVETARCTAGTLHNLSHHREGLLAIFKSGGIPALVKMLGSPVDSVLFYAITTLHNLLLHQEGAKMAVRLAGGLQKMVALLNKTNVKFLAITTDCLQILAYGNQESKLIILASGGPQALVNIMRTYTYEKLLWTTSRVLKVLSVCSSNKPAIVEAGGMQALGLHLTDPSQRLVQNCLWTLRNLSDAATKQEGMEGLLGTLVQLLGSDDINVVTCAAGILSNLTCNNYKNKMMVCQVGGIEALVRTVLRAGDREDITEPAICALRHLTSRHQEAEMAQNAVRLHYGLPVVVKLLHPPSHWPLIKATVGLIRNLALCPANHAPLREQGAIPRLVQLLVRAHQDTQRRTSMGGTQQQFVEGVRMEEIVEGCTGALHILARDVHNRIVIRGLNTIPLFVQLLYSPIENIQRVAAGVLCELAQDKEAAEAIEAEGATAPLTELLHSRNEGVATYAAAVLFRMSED
Test: Phage Library Screening with NGS, beta-catenin
Type: binding
Details: for Target Concentration 10 (phage screen NGS readout): beta-catenin target concentration 10; for Target Concentration 10 (phage screen NGS readout) / Target Concentration 30 (phage screen NGS readout) / Target Concentration 100 (phage screen NGS readout) / Target Concentration 300 (phage screen NGS readout): no competitor; for Target Concentration 30 (phage screen NGS readout): beta-catenin target concentration 30; for Target Concentration 100 (phage screen NGS readout): beta-catenin target concentration 100; for Target Concentration 300 (phage screen NGS readout): beta-catenin target concentration 300; for Target Concentration 1000 (phage screen NGS readout): beta-catenin target concentration 1000

Row | Sequence | Target Concentration BLANK (phage screen NGS readout) (first column) | Target Concentration BLANK (phage screen NGS readout) (fourth column) | Target Concentration BLANK (phage screen NGS readout) (second column) | Target Concentration BLANK (phage screen NGS readout) (third column) | Target Concentration 10 (phage screen NGS readout) | Target Concentration 30 (phage screen NGS readout) | Target Concentration 100 (phage screen NGS readout) | Target Concentration 300 (phage screen NGS readout) | Target Concentration 1000 (phage screen NGS readout) (first 1000 column) | Target Concentration 1000 (phage screen NGS readout) (second 1000 column)
1 | DPAELACEWAAIHCELV | 0 | 0 | 0 | 0 | 0 | 2 | 41 | 94 | 69 | 75
2 | DPAVEDCVLAAHVCAWF | 0 | 0 | 0 | 0 | 0 | 2 | 47 | 39 | 49 | 73
3 | DPARMTCYEAAFRCQYY | 0 | 0 | 0 | 0 | 0 | 2 | 2 | 3 | 11 | 9
4 | DPAEWYCEHAALVCTNH | 2 | 1 | 0 | 0 | 0 | 12 | 47 | 156 | 148 | 155
5 | DPAIIHCYQAAFQCQYM | 0 | 0 | 0 | 0 | 0 | 0 | 0 | 0 | 7 | 0
6 | DPAEADCMMAAHICSNI | 0 | 0 | 0 | 0 | 0 | 0 | 21 | 15 | 46 | 22
7 | DPAVDECIIAAHICHIW | 0 | 0 | 0 | 0 | 0 | 4 | 21 | 44 | 31 | 66
8 | DPAVLQCYEAAFICEYM | 0 | 0 | 0 | 0 | 0 | 0 | 1 | 6 | 4 | 5
9 | DPAIMACYQAAFWCQYN | 1 | 0 | 0 | 1 | 0 | 0 | 4 | 27 | 29 | 18

Results, then the sequence that gave them:

Row | Target Concentration BLANK (phage screen NGS readout) (first column) | Target Concentration BLANK (phage screen NGS readout) (fourth column) | Target Concentration BLANK (phage screen NGS readout) (second column) | Target Concentration BLANK (phage screen NGS readout) (third column) | Target Concentration 10 (phage screen NGS readout) | Target Concentration 30 (phage screen NGS readout) | Target Concentration 100 (phage screen NGS readout) | Target Concentration 300 (phage screen NGS readout) | Target Concentration 1000 (phage screen NGS readout) (first 1000 column) | Target Concentration 1000 (phage screen NGS readout) (second 1000 column) | Sequence
10 | 0 | 0 | 1 | 2 | 3 | 14 | 152 | 42 | 543 | 409 | DPAYWDCTHAALLCNLD
11 | 0 | 0 | 0 | 1 | 0 | 3 | 10 | 67 | 93 | 94 | DPAIIRCYEAAFYCQNY
12 | 0 | 0 | 0 | 0 | 0 | 0 | 19 | 21 | 70 | 11 | DPAQQDCTLAAHVCRVF
13 | 0 | 0 | 1 | 0 | 0 | 13 | 37 | 109 | 177 | 82 | DPAQNICEWAALHCDLI
14 | 0 | 0 | 2 | 1 | 0 | 0 | 0 | 1 | 2 | 7 | DPAVFMCYEAAFECQYF
15 | 0 | 0 | 0 | 0 | 0 | 0 | 2 | 3 | 1 | 18 | DPAWILCDWAAMHCELV
16 | 0 | 0 | 1 | 0 | 0 | 2 | 47 | 96 | 104 | 118 | DPAHWVCEHAALNCDQN
17 | 0 | 0 | 4 | 0 | 0 | 1 | 11 | 18 | 19 | 14 | DPADYECVIAAQVCQHF (not fully specified; cysteine pairing not given here)
18 | 0 | 0 | 0 | 2 | 13 | 6 | 51 | 132 | 140 | 149 | DPAHWRCEHAALLCWYN

Source: patent US20240376151A1, “STAPLED PEPTIDES AND METHODS THEREOF” (FOG PHARMACEUTICALS, INC., priority 2022, published 2024)
